US20230212554A1

Key:
[1] = target: NP of B/Brisbane/60/2008(fluB) (influenza B virus B/Brisbane/60/2008); assay: ELISA on virus-infected fixed MDCK cells
[2] = target: NPB1 (influenza B virus B/Houston/B720/2004) (UniProt O36433); assay: ELISA on recombinant NP

ab47876 (antibody)
EC50 [1]: 2.06 nM | EC50 [2]: 0.13 nM
